Test results from article PMC10157491.

Target: T1, His6-NhaR (Escherichia coli MG1655?) (UniProt P0A9G2)
T1 sequence: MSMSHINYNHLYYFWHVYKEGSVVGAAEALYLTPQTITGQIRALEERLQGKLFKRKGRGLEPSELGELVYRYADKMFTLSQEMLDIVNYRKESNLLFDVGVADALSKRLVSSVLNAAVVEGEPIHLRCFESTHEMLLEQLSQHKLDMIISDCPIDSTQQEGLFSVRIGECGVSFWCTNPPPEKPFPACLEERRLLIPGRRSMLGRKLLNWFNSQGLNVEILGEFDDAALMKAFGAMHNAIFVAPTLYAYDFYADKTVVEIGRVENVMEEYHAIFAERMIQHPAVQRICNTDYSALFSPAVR
Assay: EMSA
Conditions: NhaR EMSA: 20 mM Tris-HCl pH 8.0, 100 mM NaCl, 1 mM DTT, 10% glycerol, 125 ug/mL BSA, 10 ng DNA in 10 uL, 25 C 20 min; Fis: 10 mM Tris-HCl pH 8.0, 150 mM NaCl …

binding, binds:
CAATTAAATCCGTGAGTGCCGTAGCGCAGCCTTTCATCAGGACTTTCGAAAAATCCGAAATCATGCATCGGAATTTACTGATTTAATTATTTTAATCCTAATTTATTTTGAAAAAGGCATTGGGATTTATGCCGTATTCCTGAAGA (double strand) [PpgaA]
CCCGGTAATCTATTGTGGGAATTTAATTTAAGTGCAGAAGTAATATTTTCGCCGGATTTTATTCGGAATATCCTGCTTATCCTCGTGCTGTTTCTCACGTAGTCTATAATTTCCTTTTTAAGCCCACAGGAGAGCAAC (double strand) [PosmC]
CCGTCAAAAACGCATCTCACCGCTGATGGCGCAAATTCTTCAATAGCTCGTAAAAAACGAATTATTCCTACACTATAATCTGATTTTAACGATGATTCGTGCGGGGTAAAATAGTAAAAACGATCTATTCACCTGAAAGAGAAATAAAAAGTGAAACATCTGCATCGATTCTTTAGCAGTGATGCCTCGGGA (double strand) [PnhaA]
